Measured values taken from US7968692B2, “Elongase genes and uses thereof” (Abbott Laboratories, priority 1998, dated 2011).

Tests used:
Assay type in all cases: cell-based, Saccharomyces cerevisiae
S. cerevisiae 334 [1] = assay: Pavlova sp. elongase PELO1 activity in yeast; details: for elongation of GLA to DGLA: 25 μM of GLA
Method: (§1) The construct pRPL-6-1 was transformed into S. cerevisiae 334 (Hoveland et al., supra) and screened for elongase activity. S. cerevisiae 334 containing the unaltered pYX242 vector was used as a negative control. The cultures were grown for 44 hours at 24°C, in selective media (Ausubel et al., supra), in the presence of 25 μM of GLA or EPA. In this study, DGLA or ω3-docosapentaenoic acid (DPA, 22:5n-3), respectively, was the predicted product of the elongase activity.
as §1, with “constructs pRPL-6-B2 and pRPL-6-A3 were” for “construct pRPL-6-1 was”, “24° C.,” for “24°C,”
To further confirm the substrate specificity of the algal elongation enzyme, described above and referred to herein as PELO1p, the recombinant yeast strain 334(pRPL-6-B2) was grown in minimal media containing n-6 fatty acids LA, GLA, DGLA, AA, or n-3 fatty acids ALA, STA, ETA, EPA, or 20:0, or 20:1. […] The levels of these fatty acids were 1.40% ADA and 2.54% […], respectively, of the total fatty acids in the strains containing the PELO1 sequence. […] No elongation of the saturated fatty acid 20:0, or monounsaturated fatty acid 20:1 was seen. Also, no elongation of the C18 substrates LA, GLA, ALA, or STA was seen.

S. cerevisiae 334 [2] = assay: GLA elongase (GLELO) activity and substrate specificity in yeast
Method: To further confirm the activity of the GLA elongase encoded by the pRPB2 recombinant plasmid, elongase activity screening was repeated on the yeast clone SC334 containing pRPB2 plasmid. This experiment was also conducted to assure consistent lipid extraction and to detect the activity of GLA elongase by averaging four independent experiments. The S. cerevisiae 334 glycerol stock containing pRPB2 was plated onto minimal media agar plates lacking uracil. Individual colonies were randomly picked and grown in minimal medium lacking uracil, as described in Example VIII. The four independent cultures were combined, and a 5 ml aliquot was used as an inoculum for four separate 50 ml cultures. The cultures were then grown in the presence of GLA and were subjected to fatty acid analysis along with a negative control of S. cerevisiae 334 containing pYES2, as described in Example VIII. The GLA elongase activity of each of the four independent samples of 334(pRPB2) appeared to be consistent with an average conversion of 62% GLA to DGLA.
To analyze the substrate specificity of the GLA elongase, the culture of 334(pRPB2) was tested with different fatty acid substrates besides GLA (e.g., SA(18:0), OA(18:1), LA(18:2n-6), AA(20:4n-6), ADA(22:4n-6), ALA(18:3n-3), STA(18:4n-3), and EPA(20:5n-3)). […] GLA elongase was able to convert 73% of STA to 20:4n-3 (FIG. 25).

S. cerevisiae 334 [3] = assay: Co-expression of GLELO and M. alpina Δ5-desaturase in yeast
Method: Once DGLA (20:3n-6) is produced by the GLA elongase, the Δ5-desaturase can convert it to AA (20:4n-6) in a desired co-expression system. […] Therefore, the GLA elongase has the ability to work with other enzymes in the n-6 PUFA synthetic pathway to produce desirable fatty acids.
To determine whether the above conversion is also true in n-3 pathways, the similar co-expression experiments were carried out in the presence of 25 μM STA. Again, if both enzymes are expressed, the STA substrate will be converted to 20:4n-3 which will then be converted to EPA (20:5n-3) by the Δ5-desaturase.

S. cerevisiae 334 [4] = assay: Comparison of MAELO and S. cerevisiae ELO2 PUFA elongase activity in baker's yeast; details: 25 μM GLA; FIG. 12
Excerpt: The ELO2 gene encoding for the yeast elongase was cloned from an S. cerevisiae genomic library (Origene, Rockville, Md.) using the primers RO514 (SEQ ID NO: 94) (5′-GGCTATGGATCCATGAATTCACTCGTTACTCAATATG-3′) and RO515 (SEQ ID NO: 95)(5′-CCTGCCAAGCTTTTACCTTTTTCTTCTGTGTTGAG-3′) incorporating the restriction sites (underlined) BamHI and HindIII (respectively). The ELO2 gene was cloned into the vector pYX242 at the BamHI and HindIII sites, designated pRELO, transformed into the S. cerevisiae host 334 (Hoveland et al., supra) and screened for PUFA elongase activity. The vector plasmid was used as a negative control and 334(pRAE-5) was grown to compare the PUFA elongase activity. The cultures were grown as previously described with no galactose in the media and 25 μM GLA added as a substrate. […] Additionally, when DGLA produced is expressed as a percent of the total lipids (shown in parenthesis, FIG. 12), the clones 334(pRELO-1) and 334 (pRELO-2) produced 0.153% and 0.2% DGLA respectively, while 334(pYX242) produced 0.185% DGLA. […] The M. alpina PUFA elongase activity is specific for this conversion as evidenced by the higher amount of DGLA produced compared to the control, 334(pYX242).

[5] = 25 μM of EPA, 44 hours at 24° C.

B1: pRPL-6-1: PELO1 clone with a single mutation relative to pRPL-6-B2 that dramatically reduced conversion (protein)
chain: MMLAAGYLLVLSAARQSFQQDIDNPNGAYSTSWTGLPIVMSVVYLSGVFGLTKYFENRKPMTGLKDYMFTYNLYQVIINVWCVVAFLLEVRRAGMSLIGNKVDLGPNSFRLGFVTWVHYNNKYVELLDTLWMVLRKKTQQVSFLHVYHHVLLMWAWFVVVKLGNGGDAYFAGLMNSIIHVMMYSYYTMALLGWSCPWKRYLTQAQLVQFCICLAHSTWAAVTGAYPWRICLVEVWVMVSMLVLFTRFYRQAYAKEAKAKEAKKLAQEASQAKAVKAE
modifications: Pavlova sp. (specific species unknown)
S. cerevisiae 334 [1]; [5]
  DPA, of total fatty acids: 0.34%
  EPA (substrate), of total fatty acids: 32.28%
S. cerevisiae 334 [1]; 44 hours at 24° C.
  elongation of GLA to DGLA: no conversion of GLA to DGLA was seen

B2: PELO1: Pavlova sp. 459 elongase (SEQ ID NO:119) from plasmid pRPL-6-B2 (protein)
chain: MMLAAGYLLVLSAARQSFQQDIDNPNGAYSTSWTGLPIVMSVVYLSGVFGLTKYFENRKPMTGLKDYMFTYNLYQVIINVWCVVAFLLEVRRAGMSLIGNKVDLGPNSFRLGFVTWVHYNNKYVELLDTLWMVLRKKTQQVSFLHVYHHVLLMWAWFVVVKLGNGGDAYFGGLMNSIIHVMMYSYYTMALLGWSCPWKRYLTQAQLVQFCICLAHSTWAAVTGAYPWRICLVEVWVMVSMLVLFTRFYRQAYAKEAKAKEAKKLAQEASQAKAVKAE
modifications: Pavlova sp. (specific species unknown)
S. cerevisiae 334 [1]; 25 μM of EPA, 44 hours at 24° C., FIG. 99
  conversion of the substrate EPA to DPA: significant levels of conversion
S. cerevisiae 334 [1]; 44 hours at 24° C.
  elongation of GLA to DGLA: GLA was not elongated to DGLA
S. cerevisiae 334 [1]; FIG. 101
  elongation of saturated fatty acid 20:0 or monounsaturated fatty acid 20:1: No elongation
  elongation of the C18 substrates LA, GLA, ALA, or STA: no elongation
S. cerevisiae 334 [1]; substrate AA, FIG. 101
  conversion of AA to ADA: 14.0%
  level of ADA, of the total fatty acids: 1.40%
S. cerevisiae 334 [1]; substrate EPA, FIG. 101
  conversion of EPA to product elongated by two carbon atoms: 14.1%
  level of EPA (so in the source), of the total fatty acids: 2.54%

B3: GLELO: M. alpina GLA elongase, 318 amino acids, encoded by GLELO cDNA (SEQ ID NO:2) in plasmid pRPB2 (protein, listed as Mortierella alpina)
chain: MESIAPFLPSKMPQDLFMDLATAIGVRAAPYVDPLEAALVAQAEKYIPTIVHHTRGFLVAVESPLARELPLMNPFHVLLIVLAYLVTVFVGMQIMKNFERFEVKTFSLLHNFCLVSISAYMCGGILYEAYQANYGLFENAADHTFKGLPMAKMIWLFYFSKIMEFVDTMIMVLKKNNRQISFLHVYHHSSIFTIWWLVTFVAPNGEAYFSAALNSFIHVIMYGYYFLSALGFKQVSFIKFYITRSQMTQFCMMSVQSSWDMYAMKVLGRPGYPFFITALLWFYMWTMLGLFYNFYRKNAKLAKQAKADAAKEKARKLQ
S. cerevisiae 334 [2]; 25 μM GLA, four independent cultures, FIG. 24
  average conversion of GLA to DGLA: 62%
S. cerevisiae 334 [2]; identical assay conditions
  utilization of other substrates SA, OA, LA, AA, ADA, ALA, STA, EPA: the only other substrate utilized by the elongase enzyme was STA
S. cerevisiae 334 [2]; substrate STA, FIG. 25
  conversion of STA to 20:4n-3: 73%
S. cerevisiae 334 [3]; 25 μM GLA, co-expressed with Δ5-desaturase (pRPE31), FIG. 26A
  average conversion of GLA to AA: 27%
S. cerevisiae 334 [3]; 25 μM STA, co-expressed with Δ5-desaturase, FIG. 26B
  production of EPA: approx. 40%

B4: 334(pRELO-1): individual clone of S. cerevisiae 334 overexpressing S. cerevisiae elongase ELO2 in pYX242 (pRELO) (protein, UniProt P25358 1-347, looked up)
Fatty acid elongase 2: MNSLVTQYAAPLFERYPQLHDYLPTLERPFFNISLWEHFDDVVTRVTNGRFVPSEFQFIAGELPLSTLPPVLYAITAYYVIIFGGRFLLSKSKPFKLNGLFQLHNLVLTSLSLTLLLLMVEQLVPIIVQHGLYFAICNIGAWTQPLVTLYYMNYIVKFIEFIDTFFLVLKHKKLTFLHTYHHGATALLCYTQLMGTTSISWVPISLNLGVHVVMYWYYFLAARGIRVWWKEWVTRFQIIQFVLDIGFIYFAVYQKAVHLYFPILPHCGDCVGSTTATFAGCAIISSYLVLFISFYINVYKRKGTKTSRVVKRAHGGVAAKVNEYVNVDLKNVPTPSPSPKPQHRRKR
S. cerevisiae 334 [4]
  DGLA produced as a percent of the total lipids: 0.153%
  amount of 20:3n-6 or DGLA produced relative to negative control pYX242: twice

B5: 334(pRELO-2): individual clone of S. cerevisiae 334 overexpressing S. cerevisiae elongase ELO2 in pYX242 (pRELO) (protein, UniProt P25358 1-347, looked up)
Fatty acid elongase 2: MNSLVTQYAAPLFERYPQLHDYLPTLERPFFNISLWEHFDDVVTRVTNGRFVPSEFQFIAGELPLSTLPPVLYAITAYYVIIFGGRFLLSKSKPFKLNGLFQLHNLVLTSLSLTLLLLMVEQLVPIIVQHGLYFAICNIGAWTQPLVTLYYMNYIVKFIEFIDTFFLVLKHKKLTFLHTYHHGATALLCYTQLMGTTSISWVPISLNLGVHVVMYWYYFLAARGIRVWWKEWVTRFQIIQFVLDIGFIYFAVYQKAVHLYFPILPHCGDCVGSTTATFAGCAIISSYLVLFISFYINVYKRKGTKTSRVVKRAHGGVAAKVNEYVNVDLKNVPTPSPSPKPQHRRKR
S. cerevisiae 334 [4]
  DGLA produced as a percent of the total lipids: 0.2%
  amount of 20:3n-6 or DGLA produced relative to negative control pYX242: twice
